Laboratory results: US20150344570A1 (published 2015)

B1: GpH7-A5/GpH7-B3 variant T335_06M/GpL16-k0 (antibody, human IgG1, kappa)
heavy 1: not shown
heavy 2: not shown
light: DIVMTQSPLSLPVTPGEPASISCQASESLVHSNRNTYLHWYLQKPGQSPQLLIYKVSNRFSGVPDRFSGSGSGTDFTLKISRVEAEDVGVYYCSQNTHVPPTFGQGTKVEIERTVAAPSVFIFPPSDEQLKSGTASVVCLLNNFYPREAKVQWKVDNALQSGNSQESVTEQDSKDSTYSLSSTLTLSKADYEKHKVYACEVTHQGLSSPVTKSFNRGEC
notes: change in the GpH7-B3 H chain only; also called He Ab
B2: GpH7-A5/GpH7-B3 variant T335_11K/GpL16-k0 (antibody, human IgG1, kappa)
heavy 1: not shown
heavy 2: not shown
light: DIVMTQSPLSLPVTPGEPASISCQASESLVHSNRNTYLHWYLQKPGQSPQLLIYKVSNRFSGVPDRFSGSGSGTDFTLKISRVEAEDVGVYYCSQNTHVPPTFGQGTKVEIERTVAAPSVFIFPPSDEQLKSGTASVVCLLNNFYPREAKVQWKVDNALQSGNSQESVTEQDSKDSTYSLSSTLTLSKADYEKHKVYACEVTHQGLSSPVTKSFNRGEC
notes: as for B1
B3: GpH7-A5/GpH7-B3 variant T335_12R/GpL16-k0 (antibody, human IgG1, kappa)
heavy 1: not shown
heavy 2: not shown
light: DIVMTQSPLSLPVTPGEPASISCQASESLVHSNRNTYLHWYLQKPGQSPQLLIYKVSNRFSGVPDRFSGSGSGTDFTLKISRVEAEDVGVYYCSQNTHVPPTFGQGTKVEIERTVAAPSVFIFPPSDEQLKSGTASVVCLLNNFYPREAKVQWKVDNALQSGNSQESVTEQDSKDSTYSLSSTLTLSKADYEKHKVYACEVTHQGLSSPVTKSFNRGEC
notes: as for B1
B4: GpH7-B3 variant S298_11K/GpL16-k0 (antibody, human IgG1, kappa)
heavy: not shown
light: DIVMTQSPLSLPVTPGEPASISCQASESLVHSNRNTYLHWYLQKPGQSPQLLIYKVSNRFSGVPDRFSGSGSGTDFTLKISRVEAEDVGVYYCSQNTHVPPTFGQGTKVEIERTVAAPSVFIFPPSDEQLKSGTASVVCLLNNFYPREAKVQWKVDNALQSGNSQESVTEQDSKDSTYSLSSTLTLSKADYEKHKVYACEVTHQGLSSPVTKSFNRGEC
notes: also called Ho Ab S298_11K
B5: GpH7-B3 variant P271_04F/GpL16-k0 (antibody, human IgG1, kappa)
heavy: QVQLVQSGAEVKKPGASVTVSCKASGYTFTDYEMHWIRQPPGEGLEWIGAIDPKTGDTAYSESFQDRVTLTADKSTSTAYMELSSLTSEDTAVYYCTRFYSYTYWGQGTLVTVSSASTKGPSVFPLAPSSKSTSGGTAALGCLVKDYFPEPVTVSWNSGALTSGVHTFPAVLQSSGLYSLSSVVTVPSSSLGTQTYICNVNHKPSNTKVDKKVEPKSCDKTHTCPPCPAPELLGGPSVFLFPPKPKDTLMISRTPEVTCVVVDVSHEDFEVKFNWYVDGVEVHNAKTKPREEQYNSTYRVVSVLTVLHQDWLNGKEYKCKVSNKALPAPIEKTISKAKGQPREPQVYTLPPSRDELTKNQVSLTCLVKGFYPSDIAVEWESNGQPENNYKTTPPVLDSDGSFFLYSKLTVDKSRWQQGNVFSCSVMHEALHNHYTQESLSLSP
light: DIVMTQSPLSLPVTPGEPASISCQASESLVHSNRNTYLHWYLQKPGQSPQLLIYKVSNRFSGVPDRFSGSGSGTDFTLKISRVEAEDVGVYYCSQNTHVPPTFGQGTKVEIERTVAAPSVFIFPPSDEQLKSGTASVVCLLNNFYPREAKVQWKVDNALQSGNSQESVTEQDSKDSTYSLSSTLTLSKADYEKHKVYACEVTHQGLSSPVTKSFNRGEC
notes: also called Ho Ab P271_04F
B6: GpH7-B3 variant P271_06M/GpL16-k0 (antibody, human IgG1, kappa)
heavy: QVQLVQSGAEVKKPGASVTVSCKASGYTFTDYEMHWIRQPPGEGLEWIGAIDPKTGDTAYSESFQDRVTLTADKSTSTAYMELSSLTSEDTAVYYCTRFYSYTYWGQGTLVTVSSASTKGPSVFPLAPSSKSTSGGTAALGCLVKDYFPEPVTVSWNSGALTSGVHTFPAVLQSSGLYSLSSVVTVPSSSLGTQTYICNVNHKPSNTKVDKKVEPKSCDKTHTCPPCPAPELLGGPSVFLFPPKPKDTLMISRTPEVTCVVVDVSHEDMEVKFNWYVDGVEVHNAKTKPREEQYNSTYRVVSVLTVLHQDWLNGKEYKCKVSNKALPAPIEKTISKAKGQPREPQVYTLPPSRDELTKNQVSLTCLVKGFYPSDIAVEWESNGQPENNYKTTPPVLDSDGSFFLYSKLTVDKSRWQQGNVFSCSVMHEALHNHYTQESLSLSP
light: DIVMTQSPLSLPVTPGEPASISCQASESLVHSNRNTYLHWYLQKPGQSPQLLIYKVSNRFSGVPDRFSGSGSGTDFTLKISRVEAEDVGVYYCSQNTHVPPTFGQGTKVEIERTVAAPSVFIFPPSDEQLKSGTASVVCLLNNFYPREAKVQWKVDNALQSGNSQESVTEQDSKDSTYSLSSTLTLSKADYEKHKVYACEVTHQGLSSPVTKSFNRGEC
notes: also called Ho Ab P271_06M
B7: GpH7-B3 variant P271_07I/GpL16-k0 (antibody, human IgG1, kappa)
heavy: not shown
light: DIVMTQSPLSLPVTPGEPASISCQASESLVHSNRNTYLHWYLQKPGQSPQLLIYKVSNRFSGVPDRFSGSGSGTDFTLKISRVEAEDVGVYYCSQNTHVPPTFGQGTKVEIERTVAAPSVFIFPPSDEQLKSGTASVVCLLNNFYPREAKVQWKVDNALQSGNSQESVTEQDSKDSTYSLSSTLTLSKADYEKHKVYACEVTHQGLSSPVTKSFNRGEC
notes: also called Ho Ab P271_07I
B8: GpH7-B3 variant P271_11K/GpL16-k0 (antibody, human IgG1, kappa)
heavy: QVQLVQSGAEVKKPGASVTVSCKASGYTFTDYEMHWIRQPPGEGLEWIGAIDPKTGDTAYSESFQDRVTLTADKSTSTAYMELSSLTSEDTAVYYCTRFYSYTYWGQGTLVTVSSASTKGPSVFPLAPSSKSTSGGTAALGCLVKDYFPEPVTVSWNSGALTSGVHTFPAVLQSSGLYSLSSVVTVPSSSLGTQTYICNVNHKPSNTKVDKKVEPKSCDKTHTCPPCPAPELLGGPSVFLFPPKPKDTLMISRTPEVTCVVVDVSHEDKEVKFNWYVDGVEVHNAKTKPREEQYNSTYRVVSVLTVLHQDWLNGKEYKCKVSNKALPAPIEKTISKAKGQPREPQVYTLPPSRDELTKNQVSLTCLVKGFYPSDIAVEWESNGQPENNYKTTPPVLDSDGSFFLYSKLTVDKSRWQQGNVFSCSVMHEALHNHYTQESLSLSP
light: DIVMTQSPLSLPVTPGEPASISCQASESLVHSNRNTYLHWYLQKPGQSPQLLIYKVSNRFSGVPDRFSGSGSGTDFTLKISRVEAEDVGVYYCSQNTHVPPTFGQGTKVEIERTVAAPSVFIFPPSDEQLKSGTASVVCLLNNFYPREAKVQWKVDNALQSGNSQESVTEQDSKDSTYSLSSTLTLSKADYEKHKVYACEVTHQGLSSPVTKSFNRGEC
notes: also called Ho Ab P271_11K
B9: GpH7-B3 variant P271_12R/GpL16-k0 (antibody, human IgG1, kappa)
heavy: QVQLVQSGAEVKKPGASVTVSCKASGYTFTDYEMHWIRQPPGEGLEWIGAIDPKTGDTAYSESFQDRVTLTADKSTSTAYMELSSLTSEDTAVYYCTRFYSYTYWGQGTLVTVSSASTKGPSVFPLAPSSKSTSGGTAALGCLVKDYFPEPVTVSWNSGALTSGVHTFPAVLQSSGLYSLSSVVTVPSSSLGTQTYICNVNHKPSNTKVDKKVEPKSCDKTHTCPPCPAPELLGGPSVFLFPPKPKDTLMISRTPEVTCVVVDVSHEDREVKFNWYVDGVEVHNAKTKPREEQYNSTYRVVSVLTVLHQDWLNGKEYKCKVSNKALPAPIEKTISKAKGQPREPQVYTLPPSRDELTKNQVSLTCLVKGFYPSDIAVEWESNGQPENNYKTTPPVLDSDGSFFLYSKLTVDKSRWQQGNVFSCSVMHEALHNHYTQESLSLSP
light: DIVMTQSPLSLPVTPGEPASISCQASESLVHSNRNTYLHWYLQKPGQSPQLLIYKVSNRFSGVPDRFSGSGSGTDFTLKISRVEAEDVGVYYCSQNTHVPPTFGQGTKVEIERTVAAPSVFIFPPSDEQLKSGTASVVCLLNNFYPREAKVQWKVDNALQSGNSQESVTEQDSKDSTYSLSSTLTLSKADYEKHKVYACEVTHQGLSSPVTKSFNRGEC
notes: also called Ho Ab P271_12R
B10: GpH7-B3 variant P271_13S/GpL16-k0 (antibody, human IgG1, kappa)
heavy: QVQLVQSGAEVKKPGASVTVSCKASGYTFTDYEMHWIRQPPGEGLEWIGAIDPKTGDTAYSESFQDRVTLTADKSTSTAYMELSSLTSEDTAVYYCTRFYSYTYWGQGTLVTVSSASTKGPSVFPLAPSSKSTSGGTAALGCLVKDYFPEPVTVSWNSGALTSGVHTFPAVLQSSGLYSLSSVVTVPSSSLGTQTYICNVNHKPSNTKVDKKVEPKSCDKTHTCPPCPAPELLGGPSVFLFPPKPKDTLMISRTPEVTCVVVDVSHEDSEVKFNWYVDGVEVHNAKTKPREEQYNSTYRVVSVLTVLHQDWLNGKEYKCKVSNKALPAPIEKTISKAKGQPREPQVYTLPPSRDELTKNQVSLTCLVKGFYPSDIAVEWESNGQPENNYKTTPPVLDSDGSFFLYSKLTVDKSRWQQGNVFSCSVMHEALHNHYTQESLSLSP
light: DIVMTQSPLSLPVTPGEPASISCQASESLVHSNRNTYLHWYLQKPGQSPQLLIYKVSNRFSGVPDRFSGSGSGTDFTLKISRVEAEDVGVYYCSQNTHVPPTFGQGTKVEIERTVAAPSVFIFPPSDEQLKSGTASVVCLLNNFYPREAKVQWKVDNALQSGNSQESVTEQDSKDSTYSLSSTLTLSKADYEKHKVYACEVTHQGLSSPVTKSFNRGEC
notes: also called Ho Ab P271_13S
B11: GpH7-B3 variant P271_20W/GpL16-k0 (antibody, human IgG1, kappa)
heavy: not shown
light: DIVMTQSPLSLPVTPGEPASISCQASESLVHSNRNTYLHWYLQKPGQSPQLLIYKVSNRFSGVPDRFSGSGSGTDFTLKISRVEAEDVGVYYCSQNTHVPPTFGQGTKVEIERTVAAPSVFIFPPSDEQLKSGTASVVCLLNNFYPREAKVQWKVDNALQSGNSQESVTEQDSKDSTYSLSSTLTLSKADYEKHKVYACEVTHQGLSSPVTKSFNRGEC
notes: also called Ho Ab P271_20W
B12: GpH7-B3 variant Q295_02A/GpL16-k0 (antibody, human IgG1, kappa)
heavy: not shown
light: DIVMTQSPLSLPVTPGEPASISCQASESLVHSNRNTYLHWYLQKPGQSPQLLIYKVSNRFSGVPDRFSGSGSGTDFTLKISRVEAEDVGVYYCSQNTHVPPTFGQGTKVEIERTVAAPSVFIFPPSDEQLKSGTASVVCLLNNFYPREAKVQWKVDNALQSGNSQESVTEQDSKDSTYSLSSTLTLSKADYEKHKVYACEVTHQGLSSPVTKSFNRGEC
notes: also called Ho Ab Q295_02A
B13: GpH7-B3 variant Q295_03V/GpL16-k0 (antibody, human IgG1, kappa)
heavy: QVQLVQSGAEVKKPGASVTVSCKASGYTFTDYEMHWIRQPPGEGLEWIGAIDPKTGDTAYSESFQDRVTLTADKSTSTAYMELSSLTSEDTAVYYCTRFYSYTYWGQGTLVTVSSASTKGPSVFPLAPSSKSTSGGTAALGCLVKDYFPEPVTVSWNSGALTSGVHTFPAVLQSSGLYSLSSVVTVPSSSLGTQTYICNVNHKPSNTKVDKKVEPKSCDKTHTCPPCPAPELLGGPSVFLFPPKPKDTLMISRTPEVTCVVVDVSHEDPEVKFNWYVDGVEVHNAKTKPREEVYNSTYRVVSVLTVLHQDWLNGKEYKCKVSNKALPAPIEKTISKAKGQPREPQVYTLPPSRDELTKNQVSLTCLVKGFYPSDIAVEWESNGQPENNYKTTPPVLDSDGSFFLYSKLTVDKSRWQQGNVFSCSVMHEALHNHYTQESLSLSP
light: DIVMTQSPLSLPVTPGEPASISCQASESLVHSNRNTYLHWYLQKPGQSPQLLIYKVSNRFSGVPDRFSGSGSGTDFTLKISRVEAEDVGVYYCSQNTHVPPTFGQGTKVEIERTVAAPSVFIFPPSDEQLKSGTASVVCLLNNFYPREAKVQWKVDNALQSGNSQESVTEQDSKDSTYSLSSTLTLSKADYEKHKVYACEVTHQGLSSPVTKSFNRGEC
notes: also called Ho Ab Q295_03V
B14: GpH7-B3 variant Q295_04F/GpL16-k0 (antibody, human IgG1, kappa)
heavy: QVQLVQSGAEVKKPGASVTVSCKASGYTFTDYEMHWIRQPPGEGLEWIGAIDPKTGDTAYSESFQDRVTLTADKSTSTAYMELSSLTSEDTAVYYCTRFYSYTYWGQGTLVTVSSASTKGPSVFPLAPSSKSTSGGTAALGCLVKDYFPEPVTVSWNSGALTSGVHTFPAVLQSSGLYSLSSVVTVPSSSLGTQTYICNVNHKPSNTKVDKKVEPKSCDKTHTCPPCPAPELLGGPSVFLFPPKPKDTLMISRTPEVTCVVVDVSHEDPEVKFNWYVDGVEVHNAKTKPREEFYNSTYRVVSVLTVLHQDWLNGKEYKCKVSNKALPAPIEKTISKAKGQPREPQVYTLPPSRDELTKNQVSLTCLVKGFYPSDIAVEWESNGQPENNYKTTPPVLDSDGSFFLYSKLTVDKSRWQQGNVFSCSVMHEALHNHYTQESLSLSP
light: DIVMTQSPLSLPVTPGEPASISCQASESLVHSNRNTYLHWYLQKPGQSPQLLIYKVSNRFSGVPDRFSGSGSGTDFTLKISRVEAEDVGVYYCSQNTHVPPTFGQGTKVEIERTVAAPSVFIFPPSDEQLKSGTASVVCLLNNFYPREAKVQWKVDNALQSGNSQESVTEQDSKDSTYSLSSTLTLSKADYEKHKVYACEVTHQGLSSPVTKSFNRGEC
notes: also called Ho Ab Q295_04F
B15: GpH7-B3 variant Q295_05P/GpL16-k0 (antibody, human IgG1, kappa)
heavy: not shown
light: DIVMTQSPLSLPVTPGEPASISCQASESLVHSNRNTYLHWYLQKPGQSPQLLIYKVSNRFSGVPDRFSGSGSGTDFTLKISRVEAEDVGVYYCSQNTHVPPTFGQGTKVEIERTVAAPSVFIFPPSDEQLKSGTASVVCLLNNFYPREAKVQWKVDNALQSGNSQESVTEQDSKDSTYSLSSTLTLSKADYEKHKVYACEVTHQGLSSPVTKSFNRGEC
notes: also called Ho Ab Q295_05P
B16: GpH7-B3 variant Q295_07I/GpL16-k0 (antibody, human IgG1, kappa)
heavy: not shown
light: DIVMTQSPLSLPVTPGEPASISCQASESLVHSNRNTYLHWYLQKPGQSPQLLIYKVSNRFSGVPDRFSGSGSGTDFTLKISRVEAEDVGVYYCSQNTHVPPTFGQGTKVEIERTVAAPSVFIFPPSDEQLKSGTASVVCLLNNFYPREAKVQWKVDNALQSGNSQESVTEQDSKDSTYSLSSTLTLSKADYEKHKVYACEVTHQGLSSPVTKSFNRGEC
notes: also called Ho Ab Q295_07I
B17: GpH7-B3 variant Q295_08L/GpL16-k0 (antibody, human IgG1, kappa)
heavy: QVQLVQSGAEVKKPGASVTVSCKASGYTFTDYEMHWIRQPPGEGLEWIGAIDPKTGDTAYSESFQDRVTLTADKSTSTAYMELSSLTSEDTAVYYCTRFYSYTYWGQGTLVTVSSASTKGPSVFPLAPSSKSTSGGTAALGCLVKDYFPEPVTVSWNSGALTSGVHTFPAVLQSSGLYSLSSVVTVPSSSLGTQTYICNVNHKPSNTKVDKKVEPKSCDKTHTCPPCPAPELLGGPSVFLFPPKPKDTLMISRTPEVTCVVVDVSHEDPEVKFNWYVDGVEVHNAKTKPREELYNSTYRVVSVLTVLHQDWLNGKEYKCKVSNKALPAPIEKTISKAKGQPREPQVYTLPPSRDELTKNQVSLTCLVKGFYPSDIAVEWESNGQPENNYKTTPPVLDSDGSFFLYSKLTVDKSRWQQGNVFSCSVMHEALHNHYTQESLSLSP
light: DIVMTQSPLSLPVTPGEPASISCQASESLVHSNRNTYLHWYLQKPGQSPQLLIYKVSNRFSGVPDRFSGSGSGTDFTLKISRVEAEDVGVYYCSQNTHVPPTFGQGTKVEIERTVAAPSVFIFPPSDEQLKSGTASVVCLLNNFYPREAKVQWKVDNALQSGNSQESVTEQDSKDSTYSLSSTLTLSKADYEKHKVYACEVTHQGLSSPVTKSFNRGEC
notes: also called Ho Ab Q295_08L
B18: GpH7-B3 variant Q295_13S/GpL16-k0 (antibody, human IgG1, kappa)
heavy: not shown
light: DIVMTQSPLSLPVTPGEPASISCQASESLVHSNRNTYLHWYLQKPGQSPQLLIYKVSNRFSGVPDRFSGSGSGTDFTLKISRVEAEDVGVYYCSQNTHVPPTFGQGTKVEIERTVAAPSVFIFPPSDEQLKSGTASVVCLLNNFYPREAKVQWKVDNALQSGNSQESVTEQDSKDSTYSLSSTLTLSKADYEKHKVYACEVTHQGLSSPVTKSFNRGEC
notes: also called Ho Ab Q295_13S
B19: GpH7-B3 variant Q295_14T/GpL16-k0 (antibody, human IgG1, kappa)
heavy: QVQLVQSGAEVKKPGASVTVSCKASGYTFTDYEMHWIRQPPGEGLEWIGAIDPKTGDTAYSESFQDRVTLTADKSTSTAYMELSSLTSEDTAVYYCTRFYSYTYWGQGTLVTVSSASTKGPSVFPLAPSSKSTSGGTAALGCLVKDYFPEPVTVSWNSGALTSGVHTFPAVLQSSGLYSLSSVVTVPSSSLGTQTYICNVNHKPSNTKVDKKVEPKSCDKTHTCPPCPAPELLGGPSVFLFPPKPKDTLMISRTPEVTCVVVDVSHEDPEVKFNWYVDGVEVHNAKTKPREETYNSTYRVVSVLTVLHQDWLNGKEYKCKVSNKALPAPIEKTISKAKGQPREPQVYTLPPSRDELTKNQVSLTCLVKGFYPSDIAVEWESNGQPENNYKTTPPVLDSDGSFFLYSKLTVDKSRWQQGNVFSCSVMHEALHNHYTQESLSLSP
light: DIVMTQSPLSLPVTPGEPASISCQASESLVHSNRNTYLHWYLQKPGQSPQLLIYKVSNRFSGVPDRFSGSGSGTDFTLKISRVEAEDVGVYYCSQNTHVPPTFGQGTKVEIERTVAAPSVFIFPPSDEQLKSGTASVVCLLNNFYPREAKVQWKVDNALQSGNSQESVTEQDSKDSTYSLSSTLTLSKADYEKHKVYACEVTHQGLSSPVTKSFNRGEC
notes: also called Ho Ab Q295_14T

These binders were tested against T1, FcγRIIb extracellular domain with C-terminal His tag (human, UniProt P31994 43-217) (assay: SPR, binding relative to GpH7-A5/GpH7-B3/GpL16-k0 = 100).
T1 construct: extracellular domain; soluble analyte in Biacore; also called FcgRIIb; not shown: His tag at the C terminus
T1 sequence (looked up): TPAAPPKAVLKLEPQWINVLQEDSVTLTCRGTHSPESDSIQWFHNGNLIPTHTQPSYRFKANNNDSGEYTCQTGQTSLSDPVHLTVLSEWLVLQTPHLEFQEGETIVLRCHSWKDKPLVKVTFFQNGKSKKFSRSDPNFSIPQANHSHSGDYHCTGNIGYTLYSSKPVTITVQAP

Binder	He/Con_2b
B1	99.4 % of control
B2	91 % of control
B3	91.9 % of control

Each binder was assayed against T2, FcγRIa extracellular domain with C-terminal His tag (human, UniProt P12314 16-292) in the same assay as above.
T2 construct: extracellular domain; soluble analyte in Biacore; also called FcgRI; not shown: His tag at the C terminus
T2 sequence (P12314 16-292): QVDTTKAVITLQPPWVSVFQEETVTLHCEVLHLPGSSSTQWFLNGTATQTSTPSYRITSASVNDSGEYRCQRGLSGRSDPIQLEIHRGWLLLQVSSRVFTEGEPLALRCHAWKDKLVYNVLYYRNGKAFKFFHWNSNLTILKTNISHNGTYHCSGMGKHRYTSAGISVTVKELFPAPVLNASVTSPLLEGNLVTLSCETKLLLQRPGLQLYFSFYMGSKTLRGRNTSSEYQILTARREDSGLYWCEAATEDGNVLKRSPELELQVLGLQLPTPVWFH

Binder	He/Con_1a
B1	107 % of control
B2	111 % of control
B3	113 % of control

The binders below were run against T3, FcγRIa (human, UniProt P12314 16-292) (assay: SPR (Biacore); Ho Ab vs HoCon Ab GpH7-B3/GpL16-k0).
T3 construct: extracellular domain; Soluble extracellular domain expressed in FreeStyle293 cells, used as analyte in Biacore; also called FcgRI; 1a; not shown: His tag attached to the C terminus
Method: Analysis of interaction between objective antibody and the FcγR was carried out using Biacore T100 (GE Healthcare). HBS-EP+ (GE Healthcare) was used as the running buffer, and the measurement temperature was set to 25° C. Chips produced by immobilizing the antigen peptide by the amine coupling method to a Series S Sencor Chip CM5 (GE Healthcare), or alternatively, chips produced by allowing preliminarily biotinylated antigen peptides to interact with and immobilize onto a Series S Sensor Chip SA (certified) (GE Healthcare) were used. Antibodies of interest were captured onto an antigen peptide-immobilized chip, and allowed to interact to each FcγR diluted with running buffer. To regenerate and repeatedly use the chip, the antibodies captured on the chip were washed off by reacting 10 mM glycine-HCl, pH 1.5.

T3 sequence (P12314 16-292): as above

Binder	Ho/Con_1a
B4	90.4 relative binding, control = 100
B5	100 relative binding, control = 100
B6	102 relative binding, control = 100
B7	102 relative binding, control = 100
B8	101 relative binding, control = 100
B9	101 relative binding, control = 100
B10	101 relative binding, control = 100
B11	102 relative binding, control = 100
B12	104 relative binding, control = 100
B13	102 relative binding, control = 100
B14	100 relative binding, control = 100
B15	101 relative binding, control = 100
B16	101 relative binding, control = 100
B17	103 relative binding, control = 100
B18	101 relative binding, control = 100
B19	102 relative binding, control = 100
